Measurements taken from US7268215B2, “Photoprotein derived from okinawan squid and gene encoding the photoprotein” (Nagoya University, priority 2000, dated 2007).

What was measured:
[1] = bioluminescence assay of recombinant symplectin protein with dehydrocoeleneterazine; format: biochemical, Symplectoteuthis oualaniensis; conditions: complex with dehydrocoeleneterazine, 37° C. for 30 min, alkaline buffer (pH9.8) added
Description: The PCR products were separated on an agarose gel succeeded by digestion with EcoRI and SalI. Then it was ligated to EcoRI and SalI site of pET-32a(+) to construct a vector. The vector was designated pET-60 and it was utilized for expression of symplectin protein. The E. coli strain BL21(DE3)pLysS, transformed by pET-60, was grown in Luria broth (LB) at 37° C. Expression of the protein was induced by addition of isopropyl-1-thio-b-D-galactopyranoside (IPTG). The cells were harvested by centrifugation and lysed by sonication in a buffer. The homogenate was centrifuged, and the supernatant was subjected to affinity chromatography using His-Bind Resin. The fusion protein with thioredoxin was purified by a step-wise manner elution with varied imidazole concentrations. The recombinant symplectin protein was obtained as a fusion protein with thioredoxin, according to the manipulation described above. The recombinant symplectin protein was subjected to bioluminescence assay. The recombinant symplectin protein was suspended in a buffer, mixed with chromophore dehydrocoeleneterazine, then protein-chromophore complex was formed by incubation at 37° C. for 30 min. The alkaline buffer (pH9.8) was added to increase pH of the protein-chromophore complex solution and the bioluminescence reaction was initiated. […]

[2] = luminescent ability of purified photoprotein and its trypsin fragments; format: biochemical, Symplectoteuthis oualaniensis; conditions: purified protein before and after trypsin digestion
Text: From photogenic organ of okinawan squid, collected at the sea area of Okinawa Prefecture Japan, the photoprotein having a molecular mass of 60 kDa was separated and purified as a luminescent ability as an index. This photoprotein was soluble in a solution containing KCl at a concentration of more than 0.6M. At first, homogenate of the photogenic organ containing symplectin was washed by KCl solution (pH 6.0) of 0.4M. Then, it was extracted with a KCl solution of 0.6M, and a portion thereof was added to a buffer having pH of 8.0 to confirm the luminescent ability. Because of high salt concentration, means of chromatography applicable for purification of the extract was limited. When the purified protein was hydrolyzed by trypsin, two products having molecular masses of 40 kDa and 15 kDa were produced from the original protein of 60 kDa (FIG. 2). […] Fragments of 40 kDa and 15 kDa were recognized after trypsin digestion, particularly in lane 3 corresponding to the purified protein. […] However, the amino acid sequence of the 15 kDa protein was the same as the N-terminal amino acid sequence of the 60 kDa protein. […] Incidentally, the active region responsible for the photogenic function would exist at the C-terminal portion corresponding to the 40 kDa protein.

[3] = enzymatic characteristics and cation trigger of luminescence; format: biochemical, Symplectoteuthis oualaniensis; conditions: different from aequorin
Text: The photoprotein of okinawan squid has a low solubility and there is no conventional method for research of the protein. When a surfactant to solubilize the membrane protein is used, luminescent activity of the okinawan squid photoprotein would be disrupted. By addition of KCl (a caotropic salt) to a buffer, the protein can be solubilized without disrupting its activity. The effects of various kinds of salts on the objective protein are examined in the terms of extraction efficiency and luminescent activity. […] Enzymatic characteristic of okinawan squid was investigated. […] (Isobe M. et al., Pure and Appl. Chem., (1998) Vol.70, 2085-2092).

[4] = format: physicochemical, Symplectoteuthis oualaniensis
Text: The photoprotein of okinawan squid has a low solubility and there is no conventional method for research of the protein. When a surfactant to solubilize the membrane protein is used, luminescent activity of the okinawan squid photoprotein would be disrupted. By addition of KCl (a caotropic salt) to a buffer, the protein can be solubilized without disrupting its activity. The effects of various kinds of salts on the objective protein are examined in the terms of extraction efficiency and luminescent activity. […] Enzymatic characteristic of okinawan squid was investigated. […] (Isobe M. et al., Pure and Appl. Chem., (1998) Vol.70, 2085-2092). From photogenic organ of okinawan squid, collected at the sea area of Okinawa Prefecture Japan, the photoprotein having a molecular mass of 60 kDa was separated and purified as a luminescent ability as an index. This photoprotein was soluble in a solution containing KCl at a concentration of more than 0.6M. At first, homogenate of the photogenic organ containing symplectin was washed by KCl solution (pH 6.0) of 0.4M. Then, it was extracted with a KCl solution of 0.6M, and a portion thereof was added to a buffer having pH of 8.0 to confirm the luminescent ability. Because of high salt concentration, means of chromatography applicable for purification of the extract was limited.

B1: recombinant symplectin protein: recombinant symplectin expressed in E. coli from pET-60 as a fusion protein with thioredoxin (protein)
chain: FEHQVIPPKTDMETREEALDALKLNSDVYHEAVLESRSKGVKMIVFPEYGLYDINTLTRTRMDLMAEKVPHPKHGHRNPCDEPEYQTQSSEMLRTFSCMAKENDMYMVVNMAGREPCRRATEPECPGDKQLLYNTNVAFNNEGDVVARYYKTHLFWEEGWFNSSKNYEMALWDTPIGKFGTFMCFDFQAVQLIEQYNVRHIAYPASWVNLPPIYQSIQSHSAFARFAKINLLAASVHRLETSTYGSGIYSPNGAEIFYFRPDIPKSKLLVAEILPIHVKKPEQTVVNKDNPVFPSEDDDVQDLFDRGDFAFLKYKRMTTRAGTVEVCQKSFCCKARYAVKDRFKEVYAVGVYDGLLSAGANNLYFQICTVIQCPHKKCGLKISKVRTHFKYLNLRADGWLDRYVFPSYTVMYNNYIALDPFVWNYTVAGGIETKPGTSTPLHSANLVARIYAKDSSKHVHQPHPIDEGVIKMAVKYMLYVMAAYVYAAS
modifications: left off: large carriers; things letters cannot carry
notes: recombinant symplectin expressed in E. coli from pET-60 as a fusion protein with thioredoxin
With B1 the “luminescence monitored by lumiphotometer” value [1] was “obvious luminescence was detected”.

B2: 40 kDa protein: 40 kDa trypsin fragment of symplectin, C-terminal portion, SEQ ID NO:2 (protein, listed as Symplectoteuthis oualaniensis)
chain: ATEPECPGDKQLLYNTNVAFNNEGDVVARYYKTHLFWEEGWFNSSKNYEMALWDTPIGKFGTFMCFDFQAVQLIEQYNVRHIAYPASWVNLPPIYQSIQSHSAFARFAKINLLAASVHRLETSTYGSGIYSPNGAEIFYFRPDIPKSKLLVAEILPIHVKKPEQTVVNFDNPVFPSEDDDVQDLFDRGDFAFLKYKRMTTRAGTVEVCQKSFCCKARYAVKDRFKEVYAVGVYDGLLSAGANNLYFQICTVIQCPHKKCGLKISKVRTHFKYLNLRADGWLDRYVFPSYTVMYNNYIALDPFVWNYTVAGGIETKPGTSTPLHSANLVARIYAKDSSKHVHQPHPIDEGVIKMAVKYMLYVMAAYVYAAS
For B2, the “ability to emit luminescence” value [2] was “exhibited luminescence” and the “ability to emit luminescence” value ([2]; listed as 40 kDa fragment) was “exhibited photogenic activity”.

B3: symplectin: photoprotein derived from okinawan squid (Symplectoteuthis oualaniensis), 501 amino acids, SEQ ID NO:1 (protein, listed as Symplectoteuthis oualaniensis)
chain: YVRPVSSWKVAVFEHQVIPPKTDMETREEALDALKLNSDVYHEAVLESRSKGVKMIVFPEYGLYDINTLTRTRMDLMAEKVPHPKHGHRNPCDEPEYQTQSSEMLRTFSCMAKENDMYMVVNMAGREPCRRATEPECPGDKQLLYNTNVAFNNEGDVVARYYKTHLFWEEGWFNSSKNYEMALWDTPIGKFGTFMCFDFQAVQLIEQYNVRHIAYPASWVNLPPIYQSIQSHSAFARFAKINLLAASVHRLETSTYGSGIYSPNGAEIFYFRPDIPKSKLLVAEILPIHVKKPEQTVVNKDNPVFPSEDDDVQDLFDRGDFAFLKYKRMTTRAGTVEVCQKSFCCKARYAVKDRFKEVYAVGVYDGLLSAGANNLYFQICTVIQCPHKKCGLKISKVRTHFKYLNLRADGWLDRYVFPSYTVMYNNYIALDPFVWNYTVAGGIETKPGTSTPLHSANLVARIYAKDSSKHVHQPHPIDEGVIKMAVKYMLYVMAAYVYAAS
In the case of B3, the “triggering of luminescence by a divalent cation” value [3] is reported as “not triggered by a divalent cation”, the “ability to emit luminescence” value [2] is reported as “exhibited luminescence” and the “KCl concentration of solution in which the photoprotein is soluble” value [4] is reported as “more than 0.6 M”. The “solubility into an aqueous solution” value [4] was “low”.
